± gives the uncertainty stated by the source.
Assay: self-splicing fitness, log relative to wild type (ln ratio); higher = more splicing; Tetrahymena group I intron in knt gene, E. coli kanamycin selection, DiMSum; sequences stand for … in CUCUCU…GGAGGGAAAAGUUAUCAGGCAUGCACCUGGUAGCUAGUCUUUAAACCAAUAGAUUGCAUCGGUUUAAAAGGCAAGACCGUCAAAUUGCGGGAAAGGGGUCAACAGCCGUUCAGUACCAAGUCUCAGGGGAAACUUUGAGAUGGCCUUGCAAAGGGUAUGGUAAUAAGCUGACGGACAUGGUCCUAACCACGCAGCCAAGUCCUAAGUCAACAGAUCUUCUGUUGAUAUGGAUGCAGUUCACAGACUAAAUGUCGGUCGGGGAAGAUGUAUUCUUCUCAUAAGAUAUAGUCGGACCUCUCCUUAAUGGGAGCUAGCGGAUGAAGUGAUGCAACACUGGAGCCGCUGGGAACUAAUUUGUAUGCGAAAGUAUAUUGAUUAGUUUUGGAGUACUCGUGGUCG
Method in brief: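 Colonies from six replicate transformations of E. coli BL21(DE3) were pooled and amplicon-sequenced on an Illumina HiSeq 2500. The library placed an intron with all eight P1ex-region nucleotides randomised inside the knt kanamycin-resistance gene on pET-22b(+), and cells grew overnight at 37°C or 30°C on LB agar with or without 25 μg/mL kanamycin (plus 100 μg/mL carbenicillin, 50 μM IPTG, 0.2% rhamnose). Fitness is the DiMSum error-weighted combination of wild-type-normalised replicate fold changes, kanamycin versus none.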

| Sequence | self-splicing fitness (ln) (30 °C) | self-splicing fitness (ln) (37 °C) |
| --- | --- | --- |
| CUAGAGCAAUAUUACGUCAG | -0.419 ± 0.08 | -0.271 ± 0.11 |
| CUAGAGCAAUAUUACGUGCG | -0.299 ± 0.083 | -0.255 ± 0.098 |
| CUAGAGCAAUAUUACGUGGC | -3.87 ± 0.24 | -1.8 ± 0.23 |
| CUAGAGCAAUAUUACGUUAG | -1.27 ± 0.066 | -0.217 ± 0.096 |
| CUAGAGCAAUAUUACGUUUU | -3.96 ± 0.2 | -3.8 ± 0.25 |
| CUAUAGCAAUAUUACGAGAG | -3.63 ± 0.23 | -2.73 ± 0.24 |
| CUAUAGCAAUAUUACGAUAG |  | -2.54 ± 0.39 |
| CUAUAGCAAUAUUACGAUCU | -3.99 ± 0.39 | -1.91 ± 0.33 |
| CUAUAGCAAUAUUACGAUUA | -3.05 ± 0.29 | -0.967 ± 0.19 |
| CUAUAGCAAUAUUACGCAGU | -3.51 ± 0.2 | -2.55 ± 0.27 |
| CUAUAGCAAUAUUACGCCCA | -3.06 ± 0.37 | -1.7 ± 0.43 |
| CUAUAGCAAUAUUACGCCCG | -0.353 ± 0.24 | -0.0929 ± 0.34 |
| CUAUAGCAAUAUUACGCGAG | -1.85 ± 0.29 | 0.335 ± 0.21 |
| CUAUAGCAAUAUUACGCUAG | -3.14 ± 0.41 | -2.99 ± 0.47 |
| CUAUAGCAAUAUUACGCUUC | -2.46 ± 0.36 | -1.14 ± 0.31 |
| CUAUAGCAAUAUUACGGUCG | 0.227 ± 0.073 | 0.586 ± 0.11 |
| CUAUAGCAAUAUUACGGUGC | -3.69 ± 0.28 | -2.75 ± 0.29 |
| CUAUAGCAAUAUUACGUAGU | -2.88 ± 0.16 | -2.26 ± 0.23 |
| CUAUAGCAAUAUUACGUCAC | -3.4 ± 0.28 | -1.77 ± 0.31 |
| CUAUAGCAAUAUUACGUGAC | -1.2 ± 0.15 | -0.55 ± 0.16 |
| CUAUAGCAAUAUUACGUUAG | -2.54 ± 0.16 | -2.67 ± 0.19 |
| CUAUAGCAAUAUUACGUUAU | -3.27 ± 0.21 | -2.38 ± 0.32 |
| CUAUAGCAAUAUUACGUUCU | -3.41 ± 0.35 | -3.02 ± 0.47 |
| CUCAAGCAAUAUUACGAAGG | -1.11 ± 0.071 | -1.42 ± 0.15 |
| CUCAAGCAAUAUUACGACAG | -1.19 ± 0.062 | -0.407 ± 0.082 |
| CUCAAGCAAUAUUACGACUG | -3.48 ± 0.17 | -1.7 ± 0.2 |

| Sequence | self-splicing fitness (ln) (30 °C) | self-splicing fitness (ln) (37 °C) |
| --- | --- | --- |
| CUCAAGCAAUAUUACGCAAU | -3.56 ± 0.31 | -1.53 ± 0.32 |
| CUCAAGCAAUAUUACGCGUA | -3.49 ± 0.22 | -1.78 ± 0.15 |
| CUCAAGCAAUAUUACGCUGC | -3.68 ± 0.21 | -2.63 ± 0.19 |
| CUCAAGCAAUAUUACGGCCU | -4.43 ± 0.39 | -2.53 ± 0.32 |
| CUCAAGCAAUAUUACGGCGA | -2.71 ± 0.2 | -1.87 ± 0.23 |
| CUCAAGCAAUAUUACGGCUU | -3.53 ± 0.18 | -2.65 ± 0.21 |
| CUCAAGCAAUAUUACGGGCA | -2.74 ± 0.15 | -2.48 ± 0.16 |
| CUCAAGCAAUAUUACGGUAG | -2.03 ± 0.074 | -0.579 ± 0.08 |
| CUCAAGCAAUAUUACGUAGC | -4.09 ± 0.25 | -2.59 ± 0.22 |
| CUCAAGCAAUAUUACGUAUA | -3.98 ± 0.19 | -2.59 ± 0.16 |
| CUCAAGCAAUAUUACGUGAC | -2.46 ± 0.15 | -0.92 ± 0.12 |
| CUCAAGCAAUAUUACGUGAG | -3.05 ± 0.11 | -3.3 ± 0.16 |
| CUCAAGCAAUAUUACGUUUG | -2.21 ± 0.12 | -2.8 ± 0.15 |
| CUCAAGCAAUAUUACGUUUU | -3.35 ± 0.14 | -2.34 ± 0.18 |
| CUCCAGCAAUAUUACGAAAC | -3.94 ± 0.32 | -2.44 ± 0.26 |
| CUCCAGCAAUAUUACGAACA | -3.95 ± 0.43 | -2.23 ± 0.21 |
| CUCCAGCAAUAUUACGAACG | -1.6 ± 0.15 | -0.22 ± 0.15 |
| CUCCAGCAAUAUUACGACCA |  | -1.37 ± 0.41 |
| CUCCAGCAAUAUUACGACUA | -2.47 ± 0.21 | -2.53 ± 0.29 |
| CUCCAGCAAUAUUACGAGCC | -2.73 ± 0.22 | -2.15 ± 0.28 |
| CUCCAGCAAUAUUACGAGUU | -2.87 ± 0.17 | -2.66 ± 0.29 |
| CUCCAGCAAUAUUACGAUGC | -2.81 ± 0.25 | -2.95 ± 0.32 |
| CUCCAGCAAUAUUACGCAAU | -4.47 ± 0.41 | -2.43 ± 0.2 |
| CUCCAGCAAUAUUACGCCUG | -3.25 ± 0.21 | -2.71 ± 0.27 |
| CUCCAGCAAUAUUACGCGUU | -3.65 ± 0.17 | -2.01 ± 0.14 |
| CUCCAGCAAUAUUACGCUCC | -2.73 ± 0.3 |  |

| Sequence | self-splicing fitness (ln) (30 °C) | self-splicing fitness (ln) (37 °C) |
| --- | --- | --- |
| CUCCAGCAAUAUUACGCUUC | -3.31 ± 0.24 | -2.27 ± 0.23 |
| CUCCAGCAAUAUUACGUAUU | -4.45 ± 0.15 | -3.21 ± 0.18 |
| CUCCAGCAAUAUUACGUGCU | -3.06 ± 0.11 | -2.58 ± 0.14 |
| CUCCAGCAAUAUUACGUGGC | -3.82 ± 0.15 | -3.4 ± 0.24 |
| CUCCAGCAAUAUUACGUUAU | -3.58 ± 0.22 | -3.38 ± 0.28 |
| CUCGAGCAAUAUUACGCAGG | -3.62 ± 0.3 | -2.36 ± 0.25 |
| CUCGAGCAAUAUUACGCCAA | -3.29 ± 0.41 | -2.04 ± 0.46 |
| CUCGAGCAAUAUUACGCGCA | -2.79 ± 0.48 |  |
| CUCGAGCAAUAUUACGCUCA | -1.96 ± 0.27 | -2.15 ± 0.45 |
| CUCGAGCAAUAUUACGCUGA | -2.4 ± 0.43 | -0.491 ± 0.3 |
| CUCGAGCAAUAUUACGCUUU | -4.13 ± 0.46 | -2.31 ± 0.31 |
| CUCGAGCAAUAUUACGGAAA | -2.9 ± 0.28 | -1.37 ± 0.16 |
| CUCGAGCAAUAUUACGGAAC | -3.24 ± 0.24 | -1.98 ± 0.25 |
| CUCGAGCAAUAUUACGGAGC | -3.66 ± 0.26 | -3.22 ± 0.3 |
| CUCGAGCAAUAUUACGGGAU | -3.84 ± 0.36 | -1.93 ± 0.3 |
| CUCGAGCAAUAUUACGGGCA | -2.35 ± 0.36 | 0.194 ± 0.26 |
| CUCGAGCAAUAUUACGGUAU | -2.54 ± 0.14 | -2.62 ± 0.21 |
| CUCGAGCAAUAUUACGGUUU | -3.87 ± 0.27 |  |
| CUCGAGCAAUAUUACGUACG | -3.49 ± 0.22 | -2.86 ± 0.28 |
| CUCGAGCAAUAUUACGUCCU | -2.54 ± 0.24 | -2.55 ± 0.48 |
| CUCGAGCAAUAUUACGUCUG | -2.84 ± 0.19 | -1.2 ± 0.18 |
| CUCGAGCAAUAUUACGUGAG | -2.41 ± 0.17 | -2.32 ± 0.23 |
| CUCGAGCAAUAUUACGUGCG | -3.08 ± 0.2 | -2.91 ± 0.17 |
| CUCUAGCAAUAUUACGAAAG | -2.34 ± 0.2 | -2.11 ± 0.34 |
| CUCUAGCAAUAUUACGACAA |  | -2.35 ± 0.28 |
| CUCUAGCAAUAUUACGAUAU | -3.45 ± 0.24 | -3.2 ± 0.25 |

Reference: the supplement of paper PMC7877785
